The source of these data is publication PMC3615143.

The assay has as its target Glut1 (UniProt P11166). Kind of assay: Flag IP, HA-TXNIP blot. The settings on record: reference: HA-TXNIP wild type, 2DG-treated cells; sites S308.

For “TXNIP (from UniProt Q9H3M7) HA-TXNIP S308A, 2DG-treated cells”, the “binding against the reference” value is “stronger”.
